Experimental data published in paper PMC314469, “Protein Interaction Networks by Proteome Peptide Scanning” (PLoS Biology, 2004).

Assays:
Assay in all cases: SPOT array
[1] = molecular target: T1, Yhr016c SH3 (YSC84_YEAST), P32793
T1 chain: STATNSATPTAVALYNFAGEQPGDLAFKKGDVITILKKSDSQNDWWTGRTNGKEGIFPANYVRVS

[2] = molecular target: T2, Boi2 SH3 (BOI2_YEAST), P39969
T2 chain: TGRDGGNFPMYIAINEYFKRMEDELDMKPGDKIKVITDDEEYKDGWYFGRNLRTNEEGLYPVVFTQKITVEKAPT

[3] = molecular target: T3, Myo5 SH3 (MYO5_YEAST), Q04439
T3 chain: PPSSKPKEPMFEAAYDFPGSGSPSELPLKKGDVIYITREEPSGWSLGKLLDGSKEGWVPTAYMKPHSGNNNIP

[4] = molecular target: T4, Yfr024 SH3 (LSB3_YEAST), P43603
T4 chain: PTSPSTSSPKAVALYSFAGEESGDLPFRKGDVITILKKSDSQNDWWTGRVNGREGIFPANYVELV

[5] = molecular target: Sho1 SH3 (SHO1_YEAST), P40073
[6] = molecular target: T5, Boi1 SH3 (BOI1_YEAST), P38041
T5 chain: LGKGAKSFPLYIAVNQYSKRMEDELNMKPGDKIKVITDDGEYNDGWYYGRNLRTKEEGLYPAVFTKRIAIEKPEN

[7] = molecular target: T6, Rvs167 SH3 (RV167_YEAST), P39743
T6 chain: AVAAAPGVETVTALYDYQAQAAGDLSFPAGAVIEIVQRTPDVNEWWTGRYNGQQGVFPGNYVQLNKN

Sequence of Sho1 SH3 (SHO1_YEAST), P40073 (P40073 295-366): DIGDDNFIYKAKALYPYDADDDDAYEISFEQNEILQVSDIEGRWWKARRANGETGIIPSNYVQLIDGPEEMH

Binder	normalised SPOT signal, Boehringer light units (BLU); mean over the file's lines of this peptide [1]	normalised SPOT signal, Boehringer light units (BLU); mean over the file's lines of this peptide [2]	normalised SPOT signal, Boehringer light units (BLU); mean over the file's lines of this peptide [3]	normalised SPOT signal, Boehringer light units (BLU); mean over the file's lines of this peptide [4]	normalised SPOT signal, Boehringer light units (BLU); mean over the file's lines of this peptide [5]	normalised SPOT signal, Boehringer light units (BLU); mean over the file's lines of this peptide [6]	normalised SPOT signal, Boehringer light units (BLU); mean over the file's lines of this peptide [7]
FEEDKMTPSTPVRS [YJR092W 847-860]	3920	7.9	248	11100	65	12	59.7
ETKKKWQPLPPEPL [YOR042W 368-381]	2.5	13.2	256	30.2	436	116	28.5
EYFPREYPKDPVSE [YDR124W 275-288]	22.8	5.6	272	93.1	31.2	456	104
ERDGRGVPLGPRNH [YGL023C 22-35]	50.2	25	121	643	38	370	35.7
FEYSKYRPLTPSSE [YOR001W 401-414]	288	111	143	485	114	73.8	436
EWEEKLTPAGPLSP [YDR402C 463-476]	32.1	13.1	297	80.9	38.2	65.4	46.8
EVLRKYIPGEPEFL [YDR023W 429-442]	10.4	0	169	0	47.5	46.4	6.9
ETSLRVLPIAPKIF [YDL231C 393-406]	55.1	47.6	548	399	2880	426	766
FANIKREPVHPEIR [YPR101W 28-41]	116	21.7	188	74.4	76	96	40
ETTTRETPLPPIPA [YPL207W 797-810]	71.1	43.2	178	108	1020	85	167
FGSNKNNPVPPELT [YIL125W 149-162]	37.5	13.4	172	70	30.7	58.8	27.1
ETGVRYGPEFPLST [YNL277W 122-135]	40.6	23.4	96.2	7.2	23.1	93.9	11.9
FENRKHQPFTPKGM [YKL171W 669-682]	33.1	0.7	211	574	126	616	148
FASEKGAPFFPNKT [YPR144C 134-147]	40.9	269	359	264	12.3	60.7	585
EVENKLRPDLPVKN [YFR030W 637-650]	14.9	24.9	40.7	1360	39.1	31.6	44.1
FFYRRDIPDVPITT [YDR310C 827-840]	362	33.9	138	838	839	15400	253
